Results on two molecules are retold here after article doi:10.1101/2024.05.27.596032 (bioRxiv, 2024).

“And” between values parts separate entries of the source, which are not always exact repeats. Identical values can stand only once. Like-named read-outs stand apart in the source and are kept apart here.

Assay in all cases: SEC
The target of data set [1] is Listeria monocytogenes NrdR (Listeria monocytogenes serotype 1/2a str, S10403S) (UniProt B8DHI6).
For data set [2] the target is unchanged. This is another data set of the same source.
For data set [3] the target is unchanged. The source holds these as a separate data set.
For data set [4] the target is unchanged. The source holds these as a separate data set.
Data set [5] shares this target. The source holds these as a separate data set.
Data set [6] shares this target. The source holds these as a separate data set.
The data set “SEC” concerns the molecule itself.

Consider “Listeria monocytogenes NrdR (from UniProt B8DHI6 1-154) (natural protein)”, for which the stoichiometry N was 4 in data set [1]; 4 in data set [2]; 2 in data set [3]; 4 in data set [4]; 8 in data set [5]; 4 in data set [6].

B1: Streptococcus pneumoniae NrdR (natural protein, Streptococcus pneumoniae TIGR4, UniProt P67318 1-157, looked up)
chain: MRCPKCGATKSSVIDSRQAEEGNTIRRRRECDECQHRFTTYERVEERTLVVVKKDGTREQFSRDKIFNGIIRSAQKRPVSSDEINMVVNRIEQKLRGRNENEIQSEDIGSLVMEELAELDEITYVRFASVYRSFKDVSELESLLQQITQSSKKKKER
For the molecule B1, the “stoichiometry N” value in “SEC” is 2 and 4.
